The target in this test is T1, Recombinant GST-tagged hDPP3 (human) (UniProt Q9NY33).
T1 sequence: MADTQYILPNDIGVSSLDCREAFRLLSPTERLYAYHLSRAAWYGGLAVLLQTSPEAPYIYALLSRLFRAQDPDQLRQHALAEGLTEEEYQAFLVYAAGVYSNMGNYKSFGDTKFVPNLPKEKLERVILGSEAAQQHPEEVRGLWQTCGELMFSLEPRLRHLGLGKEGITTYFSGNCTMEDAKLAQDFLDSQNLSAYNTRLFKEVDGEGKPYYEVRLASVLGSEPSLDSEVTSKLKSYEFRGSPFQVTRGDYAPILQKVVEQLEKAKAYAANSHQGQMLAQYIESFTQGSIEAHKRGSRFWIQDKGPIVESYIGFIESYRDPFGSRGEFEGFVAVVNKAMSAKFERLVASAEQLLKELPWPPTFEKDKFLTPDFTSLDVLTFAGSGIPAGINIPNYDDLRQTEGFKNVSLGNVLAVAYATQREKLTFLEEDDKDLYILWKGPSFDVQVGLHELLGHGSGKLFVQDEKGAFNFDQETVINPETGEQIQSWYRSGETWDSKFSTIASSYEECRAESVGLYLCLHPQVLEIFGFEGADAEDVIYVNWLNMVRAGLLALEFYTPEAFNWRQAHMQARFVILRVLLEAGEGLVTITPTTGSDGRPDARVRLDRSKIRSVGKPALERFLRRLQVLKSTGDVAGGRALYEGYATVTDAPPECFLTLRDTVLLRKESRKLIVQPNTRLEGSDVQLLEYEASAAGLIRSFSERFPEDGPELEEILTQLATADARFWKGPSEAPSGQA
The test can be described thus: cell-based or functional assay.

B1: anti-DPP3 antibody clone 2555 (antibody, from another filing, V domains shown)
VH: EVQLQQSGPELVKPGASVKISCKASGYSFTGYYIHWVKQSPENSLEWIGEINPSTGGTNYNQKFKGKATLTVDKSSSTAYMQLKSLTSEESAVYYCTRSYYGIYSWFAYWGQGTLVTVSA
VL: DIKMTQSPSSMYASLGERVTITCKASQDIKSYLSWYQQKPWKSPKTLIYYATSLADGVPSRFSGSGSGQDYSLTISSLESDDTATYYCLQHGESPRTFGGGTKLEIK
Regarding B1, the Max inhibition of hDPP3 came to 25%.

(Values after patent EP3922993A1.)
